Results on one molecule are retold here after patent US20170363632A1, “Biomarker Kit for Metastatic Breast Cancer Prognosis and Uses Thereof” (University of Maryland, Baltimore, priority 2016, published 2017).

As a reminder, the Kd is the constant that tells how readily two partners part at equilibrium.

In series [1] the target is T1, HIS-PI3K/p85-SH3 (Homo sapiens, UniProt O00459).
T1 construct: the Src Homology 3 (SH3) domain of the regulatory subunit of PI3K were produced; made in house; host or cells: bacteria (IPTG induction)
T1 sequence (O00459 4-80 limits assumed): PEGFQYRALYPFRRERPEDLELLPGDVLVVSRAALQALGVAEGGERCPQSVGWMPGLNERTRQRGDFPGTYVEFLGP
T1 sequence (Q5VST9 5895-6004 partner limits assumed): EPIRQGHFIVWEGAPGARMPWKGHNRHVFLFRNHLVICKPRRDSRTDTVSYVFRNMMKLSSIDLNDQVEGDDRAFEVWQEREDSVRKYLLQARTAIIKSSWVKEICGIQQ
The series can be described thus: Surface plasmon resonance (Biacore 3000) of obscurin-PH binding to PI3K/p85-SH3. Particulars: GST-obscurin-PH immobilized ligand, HIS-PI3K/p85-SH3 analyte 8-250 nM; 1:1 Langmuir model, at equilibrium; read-out: dissociation constant, KD. The text has this:
The Pleckstrin Homology (PH) domain of obscurin and the Src Homology 3 (SH3) domain of the regulatory subunit of PI3K were produced as glutathione-S-transferase (GST, PGEX vector; GE Healthcare Life Sciences) and His (pET-30a(+) vector; EMD Millipore, Billerica, Mass.) tagged proteins, respectively, according to the manufacturers' instructions and established methods (19). Human cDNA from normal breast tissue was purchased from a commercial source (Origene, Atlanta, Ga.), and the following sets of primers were used for amplification of the obscurin-PH and the PI3K/p85-SH3 domains: Sense-Obsc-PH: 5′ CCCATCCGCCAGGGC 3′ (SEQ ID NO 1) and Antisense-Obsc-PH: 5′ AGGCAGGGCCAGACG 3′ (NM_001098623.2) (SEQ ID NO 2), and Sense-PI3K/p85-SH3: 5′ CCTGAGGGCTTCCAG 3′ (SEQ ID NO 3) and Antisense-PI3K/p85-SH3: 5′ TCAGGGCCCCAGGAA 3′ (NM_005027) (SEQ ID NO 4). […]
Surface plasmon resonance was performed using a BiaCore 3000 instrument as described (6, 19, 21). […] For each analyte concentration, association was measured for 180 sec and dissociation was measured over another 180 sec. Data were evaluated with the 1:1 Langmuir model and the Heterogeneous Ligand model (BIAevaluation Software 3.1, Biacore). The association (ka, M^−1 s^−1) and dissociation (kd, s^−1) rate constants as well as the association (KA, M^−1) and dissociation (KD, M) equilibrium constants were determined.
(SPR reads the build-up and loss of mass on a sensor chip optically.)

The target of series [2] is T1, HIS-PI3K/p85-SH3. The series can be described thus: GST-pull down assay. Format: binding. As to conditions: 3 mg/ml HIS-PI3K/p85-SH3; control GST-protein did not retain. An excerpt:
The Pleckstrin Homology (PH) domain of obscurin and the Src Homology 3 (SH3) domain of the regulatory subunit of PI3K were produced as glutathione-S-transferase (GST, PGEX vector; GE Healthcare Life Sciences) and His (pET-30a(+) vector; EMD Millipore, Billerica, Mass.) tagged proteins, respectively, according to the manufacturers' instructions and established methods (19). Human cDNA from normal breast tissue was purchased from a commercial source (Origene, Atlanta, Ga.), and the following sets of primers were used for amplification of the obscurin-PH and the PI3K/p85-SH3 domains: Sense-Obsc-PH: 5′ CCCATCCGCCAGGGC 3′ (SEQ ID NO 1) and Antisense-Obsc-PH: 5′ AGGCAGGGCCAGACG 3′ (NM_001098623.2) (SEQ ID NO 2), and Sense-PI3K/p85-SH3: 5′ CCTGAGGGCTTCCAG 3′ (SEQ ID NO 3) and Antisense-PI3K/p85-SH3: 5′ TCAGGGCCCCAGGAA 3′ (NM_005027) (SEQ ID NO 4). GST- and His-tagged recombinant proteins were expressed by induction with 0.5 mM isopropyl […] (IPTG) for 3 h and purified by affinity chromatography on glutathione-Sepharose (Thermo Fisher Scientific) or Talon cobalt (Thermo Fisher Scientific) columns, respectively, following the manufacturers' instructions.
GST-pull down assays were performed (19, 20). […]

B1: GST-obscurin-PH: recombinant Pleckstrin Homology (PH) domain of obscurin fused to GST, bacterially expressed (~37 kDa) (protein)
chain: EPIRQGHFIVWEGAPGARMPWKGHNRHVFLFRNHLVICKPRRDSRTDTVSYVFRNMMKLSSIDLNDQVEGDDRAFEVWQEREDSVRKYLLQARTAIIKSSWVKEICGIQQ
modifications: left off: a dimerising Fc or GST
In the case of B1, the Kd with HIS-PI3K/p85-SH3 [1] was ~50 nM. For the same molecule, the “retention of HIS-PI3K/p85-SH3 in GST-pull down” value with HIS-PI3K/p85-SH3 [2] is “able to efficiently and specifically retain HIS-PI3K/p85-SH3”.
